B1: PilT^Pa two-hybrid fusion from pKT25::PilT^Pa (wild type) [Pseudomonas aeruginosa] / PilT^Pa two-hybrid fusion from pUT18C::pilT [Pseudomonas aeruginosa] (parent)
chain 1: MDITELLAFSAKQGASDLHLSAGLPPMIRVDGDVRRINLPPLEHKQVHALIYDIMNDKQRKDFEEFLETDFSFEVPGVARFRVNAFNQNRGAGAVFRTIPSKVLTMEELGMGEVFKRVSDVPRGLVLVTGPTGSGKSTTLAAMLDYLNNTKYHHILTIEDPIEFVHESKKCLVNQREVHRDTLGFSEALRSALREDPDIILVGEMRDLETIRLALTAAETGHLVFGTLHTTSAAKTIDRVVDVFPAEEKAMVRSMLSESLQSVISQTLIKKIGGGRVAAHEIMIGTPAIRNLIREDKVAQMYSAIQTGGSLGMQTLDMCLKGLVAKGLISRENAREKAKIPENF
chain 2: B1 chain 1
B2: PilT^Pa two-hybrid fusion from pKT25::PilT^Pa (wild type) [Pseudomonas aeruginosa] / PilC^Pa two-hybrid fusion from pUT18C::PilC^Pa [Pseudomonas aeruginosa] (parent)
chain 1: B1 chain 1
chain 2: MLVKAHLRKQGINPLKVRKKGISLLGAGKKVKPMDIALFTRQMATMMGAGVPLLQSFDIIGEGFDNPNMRKLVDEIKQEVSSGNSLANSLRKKPQYFDELYCNLVDAGEQSGALENLLDRVATYKEKTESLKAKIRKAMTYPIAVIIVALIVSAILLIKVVPQFQSVFQGFGAELPAFTQMVVNLSEFLQEWWLAVIVGVGAIGFTFKELHKRSKKFRDTLDRTILKLPIFGGIVYKSAVARYARTLSTTFAAGVPLVDALDSVSGATGNIVFKNAVSKIKQDVSTGMQLNFSMRTTSVFPNMAIQMTAIGEESGSLDEMLSKVASYYEEEVDNAVDNLTTLMEPMIMAVLGVLVGGLIVAMYLPIFQLGNVVG

Variants of: B1
Assay: bacterial two-hybrid (BACTH), β-galactosidase activity
Conditions: with PilT^Pa two-hybrid fusion from pUT18C::pilT [Pseudomonas aeruginosa]; E. coli BTH101; n = 3; parent: 9.3e+03; read off a plot

| Variant | response [Miller units] |
| --- | --- |
| chain 1 D31K | 7000 |
| chain 1 D242K | 8000 |
| chain 1 E204A | 8000 |
| chain 1 E219K | 8600 |
| chain 1 E258A | 9300 |
| chain 1 H229A | 11000 |
| chain 1 K58A | 10000 |
| chain 1 K58Q | 10000 |
| chain 1 K58R | 11000 |
| chain 1 R123D | 8000 |
| chain 1 R239A | 11000 |
| chain 1 R294E | 8600 |
| chain 1 T216R | 10000 |

Variants of: B2
Assay: as above
Conditions: with PilC^Pa two-hybrid fusion from pUT18C::PilC^Pa [Pseudomonas aeruginosa]; E. coli BTH101; n = 3; parent: 650; read off a plot

| Variant | response [Miller units] |
| --- | --- |
| chain 1 E204A | 460 |
| chain 1 H229A | 650 |
